Test results taken from US20260097129A1 (KOOKMIN UNIVERSITY INDUSTRY ACADEMY COOPERATION FOUNDATION, published 2026).

B1: K101.3-DM1 (antibody, V domains shown)
VH: EVQLLESGGGLVQPGGSLRLSCAASGFTFSGYAMSWVRQAPGKGLEWVSAISHGGSSKYYADSVKGRFTISRDNSKNTLYLQMNSLRAEDTAVYYCAKDLLSPLQSIGSYDDAMDVWGQGTLVTVSS
VL: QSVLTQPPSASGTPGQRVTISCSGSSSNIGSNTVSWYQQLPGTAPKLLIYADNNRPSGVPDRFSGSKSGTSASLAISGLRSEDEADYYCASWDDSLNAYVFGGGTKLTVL
modifications: SMCC-DM1 conjugated to lysine residues of the antibody (positions not stated)
B2: K101.1-DM1 (antibody, V domains shown)
VH: EVQLLESGGGLVQPGGSLRLSCAASGFTFSNYSMSWVRQAPGKGLEWVSGIYYGSGNKYYADSVKGRFTISRDNSKNTLYLQMNSLRAEDTAVYYCAKNLASFDYWGQGTLVTVSS
VL: QSVLTQPPSASGTPGQRVTISCSGSSSNIGSNSVNWYQQLPGTAPKLLIYSNSHRPSGVPDRFSGSKSGTSASLAISGLRSEDEADYYCGTWDSSLSGYVFGGGTKLTVL
modifications: SMCC-DM1 conjugated to lysine residues of the antibody (positions not stated)

Biological target: GRP94 on human CRC cells (HCT116, LoVo, HT29, HCT8) (human, UniProt P14625 22-803)
Sequence (P14625 22-803): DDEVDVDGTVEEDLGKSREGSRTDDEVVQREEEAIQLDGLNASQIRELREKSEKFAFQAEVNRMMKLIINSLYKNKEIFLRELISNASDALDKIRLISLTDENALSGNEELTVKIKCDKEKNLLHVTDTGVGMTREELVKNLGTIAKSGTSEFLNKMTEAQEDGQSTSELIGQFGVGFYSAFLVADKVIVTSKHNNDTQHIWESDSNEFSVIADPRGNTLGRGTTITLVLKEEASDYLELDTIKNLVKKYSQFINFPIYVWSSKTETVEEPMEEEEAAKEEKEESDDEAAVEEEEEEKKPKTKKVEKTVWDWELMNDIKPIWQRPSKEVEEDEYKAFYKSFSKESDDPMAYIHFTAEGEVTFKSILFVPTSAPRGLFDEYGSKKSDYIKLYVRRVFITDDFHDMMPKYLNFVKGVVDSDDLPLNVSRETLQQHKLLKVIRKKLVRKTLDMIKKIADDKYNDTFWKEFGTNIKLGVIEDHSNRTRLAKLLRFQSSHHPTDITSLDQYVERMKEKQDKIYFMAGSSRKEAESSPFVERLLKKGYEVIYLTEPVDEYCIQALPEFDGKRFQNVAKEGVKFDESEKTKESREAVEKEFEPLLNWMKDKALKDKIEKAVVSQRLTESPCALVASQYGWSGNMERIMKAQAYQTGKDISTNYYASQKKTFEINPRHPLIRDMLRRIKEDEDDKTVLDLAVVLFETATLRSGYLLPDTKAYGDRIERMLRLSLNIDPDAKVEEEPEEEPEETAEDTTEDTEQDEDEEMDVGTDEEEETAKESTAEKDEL
Assay: cell-based or functional assay

Binder | IC50 of cell viability (CCK-8), HCT8 cells [nM] | IC50 of cell viability (CCK-8), HCT116 cells [nM] | IC50 of cell viability (CCK-8), HT29 cells [nM] | IC50 of cell viability (CCK-8), LoVo cells [nM]
B1 | 44.9 | 57.8 | 48.3 | 35.5
B2 | 78.8 | 34.9 | 77.7 | 52.5
